The values that follow come from patent US20070207463A1, “Method” (priority 2003, published 2007).

Holding throughout (format): biochemical, Pantoea dispersa SB1043
For series [1], the system named is CC(=O)Oc1ccc([N+](=O)[O-])cc1. In words: Enzyme kinetics of wild type AlbD with p-nitrophenyl compounds. Conditions: other: wild type AlbD, PBS pH 7.4, room temperature, O.D405, Lineweaver-Burk, means of triplicate. How it is done:
(§1) Purification of AlbD and variants. The coding sequence of albD was amplified by PCR using forward primer 5′-[…]-3′ and reverse primer 5′-[…]-3′. The PCR product was digested by BamHI and EcoRI and fused in-frame to GST (glutathione S-transferase) gene in expression vector pGEX-2T (Pharmacia). E. coli DH5α containing the GST-AlbD fusion construct was grown in LB medium at 30° C. overnight. The cells were harvested by centrifuging at 5000 rpm for 10 minutes. The cells were resuspended in PBS buffer (pH7.4) and lysed by using a French Pressure Cell Press (Aim-Aminco) at 1100 psi. The lysate was centrifuged at 18000 rpm for 60 min at 4° C. The supernatant was loaded in the pre-equilibrated Gluthione Sepharose 4B affinity column and washed with PBS buffer (pH 7.4) to remove non-specifically bound proteins. […] The enzyme purity was determined using SDS-PAGE and stored at −80° C. in PBS buffer containing 50% glycerol. The AlbD variants were purified using the same method.
(§2) Kinetics analysis of wild type AlbD and its variants. Enzyme kinetics of AlbD and variants were determined using p-nitrophenyl compounds, the commonly used esterase substrates. The reaction was conducted in 165 μl PBS buffer (pH 7.4) containing enzyme (0.3-0.6 μM), and 3 mM p-nitrophenayl compounds at room temperature for 5 minutes and O.D405 was determined. For kinetics assay, we used the Kinetics program in the Athous spectrometer (Australia) to obtain slopes with different enzyme concentrations, and then calculated Km/Vmax and Kcat/Km by Lineweaver-Burk equation.

Series [2] relates to CCCC(=O)Oc1ccc([N+](=O)[O-])cc1. Described as above. Conditions: other: wild type AlbD, PBS pH 7.4, room temperature, O.D405, Lineweaver-Burk, means of triplicate. How it is done: as §1, §2
The test system of series [3] is CCCCC(=O)Oc1ccc([N+](=O)[O-])cc1. Described as above. Conditions: other: wild type AlbD, PBS pH 7.4, room temperature, O.D405, Lineweaver-Burk, means of triplicate. How it is done:
as §1, §2

For series [4], the system named is CCCCCC(=O)Oc1ccc([N+](=O)[O-])cc1. Described as above. To be noted: other: wild type AlbD, PBS pH 7.4, room temperature, O.D405, Lineweaver-Burk, means of triplicate. How it is done: as §1, §2
The subject of series [5] is CC(=O)Oc1ccc([N+](=O)[O-])cc1. In words: Enzyme kinetics of AlbD-M2 with p-nitrophenyl compounds. To be noted: other: AlbD-M2, PBS pH 7.4, room temperature, O.D405, Lineweaver-Burk, means of triplicate. How it is done:
as §1, §2

Series [6] deals with CCCC(=O)Oc1ccc([N+](=O)[O-])cc1. The description is as above. To be noted: other: AlbD-M2, PBS pH 7.4, room temperature, O.D405, Lineweaver-Burk, means of triplicate. How it is done: as §1, §2
In series [7] the test system is CCCCCC(=O)Oc1ccc([N+](=O)[O-])cc1. The series is described as above. To be noted: other: AlbD-M2, PBS pH 7.4, room temperature, O.D405, Lineweaver-Burk, means of triplicate. How it is done: as §1, §2
Series [8] deals with Pantoea dispersa AlbD variant AlbD-M1, Ser40Gly (A118G), FIG. 3 (Pantoea dispersa, UniProt O07822, S40G). In words: Enzyme kinetics of AlbD-M1 with p-nitrophenyl compounds. To be noted: PBS pH 7.4, room temperature, O.D405, means of triplicate. As for the experimental part:
as §1, §2

Series [9] concerns the target Pantoea dispersa AlbD variant AlbD-M2, Glu25Arg (A74G)/Lys27Glu (A79G)/Ser40Gly (A118G) (Pantoea dispersa, UniProt O07822, K27E/Q25R/S40G). Nature of the series: Enzyme kinetics of AlbD-M2 with p-nitrophenyl compounds. Conditions: PBS pH 7.4, room temperature, O.D405, means of triplicate. As for the experimental part: as §1, §2
Series [10] deals with Pantoea dispersa AlbD (albicidin detoxifying enzyme, carboxyl esterase), wild type (Pantoea dispersa, UniProt O07822). Nature of the series: Enzyme kinetics of wild type AlbD with p-nitrophenyl compounds. Conditions: PBS pH 7.4, room temperature, O.D405, means of triplicate. How it is done: as §1, §2
Pantoea dispersa AlbD (albicidin detoxifying enzyme, carboxyl esterase), wild type, sequence (O07822 entry or part of it): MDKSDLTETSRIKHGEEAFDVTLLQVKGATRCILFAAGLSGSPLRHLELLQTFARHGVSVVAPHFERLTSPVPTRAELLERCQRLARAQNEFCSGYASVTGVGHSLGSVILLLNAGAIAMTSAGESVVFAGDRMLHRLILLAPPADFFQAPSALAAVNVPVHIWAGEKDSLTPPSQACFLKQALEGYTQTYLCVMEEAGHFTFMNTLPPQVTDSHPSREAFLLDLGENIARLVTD
The test system of series [11] is CC(=O)Oc1ccc([N+](=O)[O-])cc1. Nature of the series: Enzyme kinetics of AlbD-M1 with p-nitrophenyl compounds. To be noted: other: AlbD-M1, PBS pH 7.4, room temperature, O.D405, Lineweaver-Burk, means of triplicate. As for the experimental part: as §1, §2
Series [12] concerns CCCC(=O)Oc1ccc([N+](=O)[O-])cc1. The description is as above. To be noted: other: AlbD-M1, PBS pH 7.4, room temperature, O.D405, Lineweaver-Burk, means of triplicate. As for the experimental part:
as §1, §2

The subject of series [13] is CCCCC(=O)Oc1ccc([N+](=O)[O-])cc1. The description is as above. Conditions: other: AlbD-M1, PBS pH 7.4, room temperature, O.D405, Lineweaver-Burk, means of triplicate. As for the experimental part: as §1, §2
Series [14] has as its system CCCCCC(=O)Oc1ccc([N+](=O)[O-])cc1. The series is described as above. Conditions: other: AlbD-M1, PBS pH 7.4, room temperature, O.D405, Lineweaver-Burk, means of triplicate. How it is done:
as §1, §2

As a reminder, the Km is the substrate concentration at which the rate is half of its maximum. By kcat is commonly meant the maximal rate divided by the concentration of active sites. As usually defined, the kcat/Km is the turnover number divided by the Michaelis constant.

Pantoea dispersa AlbD variant AlbD-M1, Ser40Gly (A118G), FIG. 3, sequence (O07822 entry or part of it S40G): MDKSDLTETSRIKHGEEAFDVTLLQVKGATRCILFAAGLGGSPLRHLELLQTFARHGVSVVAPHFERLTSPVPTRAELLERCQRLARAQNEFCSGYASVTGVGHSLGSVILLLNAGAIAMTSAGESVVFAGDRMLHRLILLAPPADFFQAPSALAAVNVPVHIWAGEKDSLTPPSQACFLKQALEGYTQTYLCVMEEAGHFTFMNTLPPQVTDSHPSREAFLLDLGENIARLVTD
Pantoea dispersa AlbD variant AlbD-M2, Glu25Arg (A74G)/Lys27Glu (A79G)/Ser40Gly (A118G), sequence (O07822 entry or part of it Q25R/K27E/S40G): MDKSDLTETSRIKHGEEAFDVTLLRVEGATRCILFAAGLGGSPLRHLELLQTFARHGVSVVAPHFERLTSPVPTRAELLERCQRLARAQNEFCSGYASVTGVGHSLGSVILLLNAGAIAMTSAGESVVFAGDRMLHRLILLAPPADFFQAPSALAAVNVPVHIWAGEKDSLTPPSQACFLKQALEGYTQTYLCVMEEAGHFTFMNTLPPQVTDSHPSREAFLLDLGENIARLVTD

In the case of “Pantoea dispersa AlbD (albicidin detoxifying enzyme, carboxyl esterase), wild type (Pantoea dispersa)”, the Km in series [1] was 0.068 M; in [2], 190 µM; in [3], 1.7 mM; in series [4], 2.5 mM. In addition, the kcat in [2] was determined as 0.1 s⁻¹; in series [3] it was 0.28 s⁻¹; in [4], 0.11 s⁻¹. Also, the figures for the specificity constant (kcat/Km) in [2], in [3] and in series [4] were 526 M⁻¹ s⁻¹, 165 M⁻¹ s⁻¹ and 55.6 M⁻¹ s⁻¹, respectively.

Regarding “Pantoea dispersa AlbD variant AlbD-M2, Glu25Arg (A74G)/Lys27Glu (A79G)/Ser40Gly (A118G) (Pantoea dispersa; K27E/Q25R/S40G)”, the Michaelis-Menten constant (Km) in series [5] amounted to 0.013 M; in series [6] it was 23 µM; in [7], 0.066 M.

As for `CCCCCC(=O)Oc1ccc([N+](=O)[O-])cc1` [p-nitrophenyl caproate], the Kcat in [8] was 4.2 × 10^−1 S^−1; in series [9], 1.3 × 10^−1 S^−1.

For the compound `CCCC(=O)Oc1ccc([N+](=O)[O-])cc1` [p-nitrophenyl butyrate], the results for the Kcat in series [8] and in series [9] were 2.5 × 10^−1 S^−1 and 2.8 × 10^−2 S^−1, respectively.

As for `CCCCC(=O)Oc1ccc([N+](=O)[O-])cc1` [p-nitrophenyl velerate, p-nitrophenyl valerate], in [8], the Kcat is recorded as 8.8 × 10^−1 S^−1.

In the case of `CC(=O)Oc1ccc([N+](=O)[O-])cc1` [p-nitrophenol acetate, p-nitrophenyl acetate], the Kcat in series [10] is listed as 3.8 × 10^−3 S^−1; in [8] it was 9.1 × 10^−2 S^−1; in series [9], 1.5 × 10^−2 S^−1.

For `CCC(=O)Oc1ccc([N+](=O)[O-])cc1` [p-nitrophenol propionate, p-nitrophenyl propionate], the Kcat is listed as 8.3 × 10^−2 S^−1 in series [10], 2.7 × 10^−1 S^−1 in series [8] and 1.0 × 10^−1 S^−1 in [9].

Regarding “Pantoea dispersa AlbD variant AlbD-M1, Ser40Gly (A118G), FIG. 3 (Pantoea dispersa; S40G)”, the Km in [11] came to 0.094 M; in series [12], 11 µM; in series [13], 400 µM; in series [14], 250 µM.
